This is an account of results in the DeepSol protein solubility set.

This data set is described as follows: soluble on expression in E. coli; label from the status in PepcDB or PDB records.
Consider “MEVAPEQPRWMAHPAVLNAQHPDSHHPGLAHNYMEPAQLLPPDEVDVFFNHLDSQGNPYYANPAHARARVSYSPAHARLTGGQMCRPHLLHSPGLPWLDGGKAALSAAAAHHHNPWTVSPFSKTPLHPSAAGGPGGPLSVYPGAGGGSGGGSGSSVASLTPTAAHSGSHLFGFPPTPPKEVSPDPSTTGAASPASSSAGGSAARGEDKDGVKYQVSLTESMKMESGSPLRPGLATMGTQPATHHPIPTYPSYVPAAAHDYSSGLFHPGGFLGGPASSFTPKQRSKARSCSEGRECVNCGATATPLWRRDGTGHYLCNACGLYHKMNGQNRPLIKPKRRLSAARRAGTCCANCQTTTTTLWRRNANGDPVCNACGLYYKLHNVNRPLTMKKEGIQTRNRKMSNKSKKSKKGAECFEELSKCMQEKSSPFSAAALAGHMAPVGHLPPFSHSGHILPTPTPIHPSSSLSFGHPHPSSMVTAMG”, for which the “soluble on expression in E. coli” value is listed as “soluble”.

As for “MADTEGTSSSIPTSTNSSRHRASRGRGGRFRQAPRQVGANTADNLDAAPLMNPRGGHRGGSGNKRGRGQKEATSASRLQMQPEANFTFNPNAATFNPAQSVLFDPSVPPPTIGASTHSNQNSRQQEPSQNRRRRGGQQNTQRRQLEIQEQRGDSHPQNQSRQNNRNQLNVDRIANQQNKSVQNPSRNPGNSRRGQGARRREQKEEPLTEEETKILADKPLREGLVYLLENNKYECAICYTRITTRQGVWSCKTCYHIFHISTGCITDWARSSRDKEGANTWRCPTCQTENETMPYNYYCFCGRMRNPNFRVGEVPHSCGETCGGARKFGCPHPCTELCHPGPCIECKLFTTKSCNCGKTKKSVRCGSDQEVMCETVCGKQLSCGQHNCERICHSGDCGECTVILEQDCFCGKTPKEVSCNPCAHEKYSCGSECDGMFSCGIHHCTKKCHDKECGECETGANRIRTCPCGRNTLQSLGVTRKKCTDMVPTCDSVCDKWLTCGTPGKNHHCREKCHEGPCPPCNLNTSVICRCGTSKGVIPCDEYLQIMKTTGEYLCTKRCRKKKSCGMHKCQEVCCIQDEHFCLQMCNKRLSCGIHTCENVCHAGQCRPCLQASFDEQFCHCGHTVRMPPIPCGARLPVCSQPCVRPHSCDHSVSHKCHGEQNCPPCTQLTEKMCYGGHRVRKNIPCHIDSVSCGVVCKKPLKCGVHVCQRTCHGEECEKEGEKCTKKCETIRELCEHPCALPCHEDSPCEPSPCKASVRISCECGRIKKDAPCCEVDKMILSKLEKEEEEKSESDGEEKVVKEGILKRSTSFSQLNCMKCDDECKKLERNRKVAEALEVDTDEYGMNKLAPTISFPCYLKEMVRTNIDFVKSVEKILIDLVIQILSGEAYHDTFRAHLPAMSIEKRRFVHEYANFFNIASESVDSPPKRSIVLTAVRGKSHQPLVLISDLVNYKGALKTPGPAVIRKDIMDQALSKKEETEGLMKPLRCTEKMVVRREARPMKEITAPIPLKQQNQFALLGSDVDSDDEESNVPTTSNLVSSPPKDWWKDEEEGWQKVQQKEYVVEVERDMTEDEIEAAKKLDEGPTWEDQCDEDAPATETSSAIESPAKEEPVAELLE”, the “soluble on expression in E. coli” value is on record as “soluble”.

Consider “MGSDKIHHHHHHMKFKTVGNPNGPKILLIHPMFATSECFVNLVEYLKEDYFVITPTLDGHDINENSIFLSVEDEGNKVLAYLKDNSIKELDFMLGTSLGAIIAFEIYKRNEIRINKVYLDGGPFFKFGALLQKVAAKKFCNICSEVRQNPQKAINKIERLFKGLGNEMCEVACHITEESIKNLAHACYSFTLPNLKPVEQKSVVFLYGTKEPARFCIFRLRKYKYSRIIKKNGFSHCGYLLSYPKEYAEMLKENTQ”, for which the “soluble on expression in E. coli” value is on record as “not soluble”.

On to “SMLGPEGGEGFVVKLRGLPWSCSVEDVQNFLSDCTIHDGAAGVHFIYTREGRQSGEAFVELGSEDDVKMALKKDRESMGHRYIEVFKSHRTEMDWVLKHSGPNSADSANDGFVRLRGLPFGCTKEEIVQFFSGLEIVPNGITLPVDPEGKITGEAFVQFASQELAEKALGKHKERIGHRYIEVFKSSQEEVRSYSDPPLKFMSVQRPGPYDRPGTARRYIGIVKQAGLERMRPGAYSTGYGGYEEYSGLSDGYGFTTDLFGRDLSYCLSGMYDHRYGDSEFTVQSTTGHCVHMRGLPYKATENDIYNFFSPLNPVRVHIEIGPDGRVTGEADVEFATHEEAVAAMSKDRANMQHRYIELFLNSTTGASNGAYSSQVMQGMGVSAAQATYSGLESQSVSGCYGAGYSGQNSMGGYD”, for which the “soluble on expression in E. coli” value is “soluble”. Under “DKLYPCQCGKSFTHKSQRDRHMSMHLGLRPYGCGVCGKKFKMKHHLVGHMKIHTGIKPYECNICAKRFMWRDSFHRHVTSCTKSYEAAKAEQNTTEA” stands “soluble”; under “MKRKIIVACGGAVATSTMAAEEIKELCQSHNIPVELIQCRVNEIETYMDGVHLICTTARVDRSFGDIPLVHGMPFVSGVGIEALQNKILTILQG”, “soluble”; under “QKVTLVKKKQETVSIDAGIDRMRRAVRLLDRAEWVEVIDSVRTNKADLLSAYNLIADNGRLEWVKGNQGEATSFVNGRGDHAIMTEKGEDGVYSLHEAHRIGGKWGNAIPLEKLNSRFNENYPSLRADGFTLLFASDRPDGIGGYDLYMTRRDLEDGIFLEPTLLGMPFNSPYNDYLLVYDELRGIGFFASDRFCPADVVTVYTFVINEEGRPVATDDMALKRAYASLKSIRATQDPERDYSRLIASARDNRTDAEKKASERQIYFPMQGMRIYTRWSDFQSSEAKSLYQDVMARKRKLEQAATRLEELRLLYGRASALERSGMKQEILRLENAIPPLEEEVGRMEKEVRNMELQAVQGF”, “not soluble”. The same measure for “MSLNKKVDIRHIFISSQERGKEEAKKLADEIYNRLKNNEDFETLAKQYSDDEKTKESGGVITELRAGFNEAVFDNAVFTAEAGQLLEPIEVARGYEIVYVDKVTDFYRTRDEYAELLTVDKFMQSDAYKEWFEEYKKNYDIEITDPAMKAFRLFREKQYNEAGALYEELYKSEKDAYYIEMACEAYKLAENWAGLIEAGKLAVKENPDFVNYYLYQAEGEFKVGDANKAKELLKEAEKKAGDNTYFLDLIRKMYESQGLAEDVERIDRKFQEISEKLKGEGHHHHHH”: “soluble”; for “MSLTTMKEIAEQTGVSISTVSLVLNGRDEGRVNPALAKLVRNKATELGYKINPLARSLRTNKTRILGFISEEVATTPYAGGIILGAQDAASAYGYMLFTVSTDGKASEENEIATLKRYGVDGFFYSKMSNRIAHVPESLSDYPVVMVDATDYENKVPSVEPDEFMIGYDATIRLLQADCKRIAYVGCAENMIAQDGRLAGYCTALQEAGRAFNPSLVCNVMNDGPALRAVNKLFDDEHPDGFFCFNDARAWYVYECAARRGLTVGKDISVVGVDNHRVFAETLEPQLTTVELPHYEMGYWSACKLISMIEGKDVDTSSCPSARASLPPLDAPIPAKIHCALLEKDSVISEGHHHHHH”: “soluble”; for “TQNPIANPLAAKKRRDHVLERLLEEHYINEEQYQNAVNQPITAKYHGTNIKVKAPYVAEMIRQSLYDNFGPEAYTKGY”: “not soluble”. Under “MGSDKIHHHHHHMGVMMKQKIKILTVIGLMTVGMSACHNTSKPSNTDSVFSLTGKKRQQIVKQVRQRYYFQQLSKTEQENYLTLYDSLAQFREIISLTPASKKSLIKTIDAFVMDNPEFYWITSADYRFEFSDQTVFVTFPIPEDAKNIYQDLQAIGNDIVANTPSKDRYEQVKYFYEVIIRDTDYNKKAFEAYQSGSQAQVASNQDIKSVFIDHLSVCNGYAQAFQFLCQKAGIPVAYIRGTGTSQQPQQSFAHAWNAVQINNTYYGVDVTWGDPVFDNHLSHQKQGTINYSFLCLPDYLMALSHQPSKDIAFNTKERFENVWTIPSCTDDSLLYSKRHQSYISTFDSDAILASLENQLLNRQEPLSLQFAHQDDYQQMVTDLTTNQTGYHNLFNQYWNNYTGFTYGLLPETLSISFASRN” stands “not soluble”. In the case of “MSQRKYFGTDGVRGEVGGPVINAAFALRLGYAAGRVLAREHREHASGRGRNRPQVVIGKDTRISGYMLESALEAGLSAAGIDVLLAGPVPTPAVAYLTRTLRLAAGIVISASHNPYQDNGIKFFSAHGMKLPDDIEAAIEQALDEPLGCVGSEELGRARRMADAQGRYIEFCKSTFPHDLDLNGLKLVVDAAHGAAYNVAPHVFRELGAEVHAIGVSPDGFNINKGVGALHPESLAEEVRARGADLGIALDGDADRLQMVDGTGRIYNGDELLYAIVRERMQRGPVAGVVGTLMTNYGLERQLQQIGVGFERANVGDRYVLEQMQARGWLYGGESSGHLLCLDCHTTGDGTIAALQVLTALRRADATLAEWVADLRMYPQKMINVPLAPGLDWKTHDGLARARGAVEAELAGRGRVLIRASGTEPKLRLMVEAEDEALAQASAQKLADSLGA”, the “soluble on expression in E. coli” value is “not soluble”.

In the case of “MEMFKMSREMLQLAEALASEKNVDAEVVFQALEFALSTAAKKKADREHMDVRVQINRDTGEYQTFRRWLIVADEDYTYPDVEKTIEEIQEEIPDTTIQIGEYYEEQLPNEGFGRQAAQTAKQIILQRIRDAEREQNLNEFLAVKEDIVSGTVKRVERHGIIVEVVAGKLDALIPRDQMIPRENFRSGDRIRALFLRVEEIGNTGRKQIILSRTSGDFLVKLYANEVPEIADGMLEIRAVARDPGQRAKVAVKANDQRIDPQGTCIGVRGSRVNAVSNELSGERIDVVLWSPEPAQFVMSALSPAEVSRIVIDEDKHAVDVIVAEDRLALAIGRGGQNVRLASDLTGWQLNIMTSAEADERNAAEDAAIRRLFMNHLNVDEETADVLVQEGFATLEEVAYVPAAELLAIEGFDEEIVDMLRNRARDAILTMAIAAEEKLGEVSDDMRNLEGVDADMLLSLAEAGITTRDDLAELAVDELIEITGVNEETAKAVILTAREHWFTEDKLEHHHHHH”, the “soluble on expression in E. coli” value was “soluble”. The same measure for “MSKIDFHTHYLPTSYVEALKRHVPGDPDGWPTPEWTPQLTLNFMRDNDISYSILSLSSPHVNFGDKAETIRLVEAANDDGKSLAQQYPDQLGYLASLPIPYELDAVKTVQQALDQDGALGVTVPTNSRGLYFGSPVLERVYQELDARQAIVALHPNEPAILPKNVDIDLPVPLLGFFMDTTMTFINMLKYHFFEKYPNIKVIIPHAGAFLGIVDDEIAQYAQKVYQVDVYDVMHHVYFDVAGAVLPRQLPTLMSLAQPEHLLYGSDIPYTPLDGSRQLGHALATTDLLTNEQKQAIFYDNAHRLLTELEHHHHHH”: “not soluble”; for “DPTAQSLQDISDEQVLVLFEQMLVDMNLNEEKQQPLREKDIVIKREMVSQYLHTSKAGMNQKESSRSAMMYIQELRSGLRDMHLLSCLESLRVSLTSHPVSWVQTFGAEGLASLLDILKRLHDEKEETSGNYDSRNQHEIIRCLKAFMNNKFGIKTMLETEEGILLLVRAMDPAVPNMMIDAAKLLSALCILPQPEDMNERVLEAMTERAEMDEVERFQPLLDGLKSGTSIALKVGCLQLINALITPAEELDFRVHIRSELMRLGLHQVLQELREIENEDMKVQLCVFDEQGDEDFFDLKGRLDDIRMEMDDFGEVFQIILNTVKDSKAEPHFLSILQHLLLVRNDYEARPQYYKLIEECVSQIVLHKNGTDPDFKCRHLQID”: “soluble”. As to “MNINRNKIVQLADTDTIENLTSALSQRLIADQLRLTTAESCTGGKLASALCAAEDTPKFYGAGFVTFTDQAKMKILSVSQQSLERYSAVSEKVAAEMATGAIERADADVSIAITGYGGPEGGEDGTPAGTVWFAWHIKGQNYTAVMHFAGDCETVLALAVRFALAQLLQLLL”, the “soluble on expression in E. coli” value is “not soluble”. Under “MAHHHHHHMSPVIALHEDLQKRLEEYRSTRGFSPVKWIEQKCAALNEYMASHGLKVCVTSVSGGIDSAVVLALCSRAMRMPNSPIVRNVGICQPICSSAWALARGRENIQSCGALEVIVDQTELYKQLSRIVETAVGIDGQNFARGQLRSYMRTPVAYYVAQLYSQEGNAAIVMGTGNMDEDGYLAYFCKAGDGVVDVQLISDLHKSEVFRVARELGVPANTLQASPSADLWEGQTDEEELGFPYDFVELYTGWCLQLSDEERQSFLHSLSSDARQQYEKYKDACENTHRRNAHKLRGPINL” stands “soluble”.
